Results: article PMC5709738 (The EMBO Journal, 2017)

B3: Nkp1-Nkp2 heterodimer (K. lactis) (complex, Kluyveromyces lactis)
chain 1: MDLESEIIQLVRQNIRPKFPSLNDEQQARLDNALKYDVNYDILKKELVEYIDDWKRNEYYDVLTNIGDLQRLDLGNMLNGDGVSFPKLHSDLANLPRFRLIDNENEMDQSLLHKYDSLRTRLIEKCRAIELIRSATNTDVNYQDINSMLSVVELRQWRDEIQMEWKELAQNLELILKTWPDLTEEKRSKLLQLIDSSSLKSILHIKDNIE
chain 2: MLHEVLYKHLDGILVSRLYTEDQFVDLFSRTIPESNTVIASQLYKSYEENDQRIIEKIDKLIDNKLSLIRVELEREQIEDSISLEEVNKLLHSIDDMLQQHLNQLNIELDNKNTKLLKYAMELSDIEAIDTSMYDNVAKLITDMETNQPSS
notes: Nkp1 of Kluyveromyces lactis; Nkp2 of Kluyveromyces lactis; also called NN; source: E. coli BL21 Rosetta 2(DE3)pLysS, purified

Key:
[1] = molecular target: B3; assay: SEC; Superdex 200 HiLoad 10/600 prep grade column (Appendix Fig S7B); settings: both partners purified
[2] = molecular target: T1, Ame1-Okp1 (K. lactis, full length) (Kluyveromyces lactis, UniProt Q6CUE5 1-292; Q6CJY0 1-383); assay: native MS; nanoflow spectra and tandem mode with collision-induced dissociation in the gas phase (argon); subassemblies stripped of subunits; settings: both partners purified
T1 construct: Ame1 of Kluyveromyces lactis; Okp1 of Kluyveromyces lactis; stands as the Ame1-Okp1 part of COMA; also called Okp1-Ame1; source: E. coli BL21 Rosetta 2(DE3)pLysS, co-expressed with Ctf19 and Mcm21 versions
T1 sequence (looked up) 1: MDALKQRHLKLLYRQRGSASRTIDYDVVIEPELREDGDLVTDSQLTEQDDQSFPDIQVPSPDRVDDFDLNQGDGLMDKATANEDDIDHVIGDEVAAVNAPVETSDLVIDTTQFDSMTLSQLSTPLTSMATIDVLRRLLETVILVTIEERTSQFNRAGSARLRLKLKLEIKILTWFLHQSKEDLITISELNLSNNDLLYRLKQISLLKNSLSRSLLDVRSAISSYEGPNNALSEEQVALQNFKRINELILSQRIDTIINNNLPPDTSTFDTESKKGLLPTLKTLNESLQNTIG
T1 sequence (looked up) 2: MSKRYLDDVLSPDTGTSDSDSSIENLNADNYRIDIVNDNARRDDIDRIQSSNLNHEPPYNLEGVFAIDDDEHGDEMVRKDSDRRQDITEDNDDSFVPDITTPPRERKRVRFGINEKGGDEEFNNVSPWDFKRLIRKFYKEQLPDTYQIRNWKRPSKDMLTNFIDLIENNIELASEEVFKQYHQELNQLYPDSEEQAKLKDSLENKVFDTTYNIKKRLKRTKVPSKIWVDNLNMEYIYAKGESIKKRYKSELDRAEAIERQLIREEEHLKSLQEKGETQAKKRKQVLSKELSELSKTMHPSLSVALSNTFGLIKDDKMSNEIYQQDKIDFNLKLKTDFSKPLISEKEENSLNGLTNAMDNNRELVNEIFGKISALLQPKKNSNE

[3] = molecular target: T2, COMA (K. lactis, full length: Ame1, Ctf19, Mcm21, Okp1) (Kluyveromyces lactis, UniProt Q6CUE5 1-292; Q6CRN7 1-270; Q6CVQ9 1-293; Q6CJY0 1-383); assay: as above; settings: both partners purified
T2 construct: Ame1 of Kluyveromyces lactis; Ctf19 of Kluyveromyces lactis; Mcm21 of Kluyveromyces lactis; Okp1 of Kluyveromyces lactis; copies: + + +
T2 sequence (looked up) 1: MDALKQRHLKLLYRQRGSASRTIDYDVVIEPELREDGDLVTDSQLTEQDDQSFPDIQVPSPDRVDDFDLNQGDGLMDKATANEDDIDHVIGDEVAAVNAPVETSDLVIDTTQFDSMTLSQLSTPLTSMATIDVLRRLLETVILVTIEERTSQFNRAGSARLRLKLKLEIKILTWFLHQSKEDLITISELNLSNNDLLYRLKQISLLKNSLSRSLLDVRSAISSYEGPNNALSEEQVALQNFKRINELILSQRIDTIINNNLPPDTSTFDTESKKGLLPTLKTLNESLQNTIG
T2 sequence (looked up) 2: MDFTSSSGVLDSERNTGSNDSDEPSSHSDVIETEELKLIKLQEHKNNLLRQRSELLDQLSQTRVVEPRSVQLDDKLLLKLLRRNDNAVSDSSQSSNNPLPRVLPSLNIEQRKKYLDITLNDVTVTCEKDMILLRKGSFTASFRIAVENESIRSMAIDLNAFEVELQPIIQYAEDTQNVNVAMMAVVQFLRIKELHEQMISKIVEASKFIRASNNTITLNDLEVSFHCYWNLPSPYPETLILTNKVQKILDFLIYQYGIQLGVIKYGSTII
T2 sequence (looked up) 3: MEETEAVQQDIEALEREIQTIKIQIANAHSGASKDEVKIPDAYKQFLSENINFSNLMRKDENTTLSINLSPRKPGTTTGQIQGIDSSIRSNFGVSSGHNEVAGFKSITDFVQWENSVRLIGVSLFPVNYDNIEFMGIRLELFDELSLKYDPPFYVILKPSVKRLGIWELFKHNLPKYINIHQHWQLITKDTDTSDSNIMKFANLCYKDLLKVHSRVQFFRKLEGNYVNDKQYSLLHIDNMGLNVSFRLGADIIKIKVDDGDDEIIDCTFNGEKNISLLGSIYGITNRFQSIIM
T2 sequence (looked up) 4: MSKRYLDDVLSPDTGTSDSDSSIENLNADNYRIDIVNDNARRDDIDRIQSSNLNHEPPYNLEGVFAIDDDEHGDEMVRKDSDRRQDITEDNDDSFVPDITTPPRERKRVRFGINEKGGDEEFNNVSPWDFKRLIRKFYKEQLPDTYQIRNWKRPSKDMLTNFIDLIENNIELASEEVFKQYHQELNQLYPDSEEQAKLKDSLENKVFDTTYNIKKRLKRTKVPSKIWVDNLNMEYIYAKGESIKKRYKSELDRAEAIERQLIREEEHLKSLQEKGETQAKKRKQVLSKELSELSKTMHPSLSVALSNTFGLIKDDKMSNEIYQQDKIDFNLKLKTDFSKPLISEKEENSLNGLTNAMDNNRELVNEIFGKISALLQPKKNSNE

Nkp1 (K. lactis) = molecular target: T3, Nkp1 (K. lactis) (Kluyveromyces lactis, UniProt Q6CPR4 1-210); assay: HDX-MS; purified assemblies in D2O buffer, quenched at pH ~2.5, pepsin column; exchange patterns compared between assemblies; settings: both partners purified
T3 construct: Nkp1 of Kluyveromyces lactis; also called non-essential kinetochore protein 1; HisNkp1; source: E. coli BL21 Rosetta 2(DE3)pLysS, purified
T3 sequence (looked up): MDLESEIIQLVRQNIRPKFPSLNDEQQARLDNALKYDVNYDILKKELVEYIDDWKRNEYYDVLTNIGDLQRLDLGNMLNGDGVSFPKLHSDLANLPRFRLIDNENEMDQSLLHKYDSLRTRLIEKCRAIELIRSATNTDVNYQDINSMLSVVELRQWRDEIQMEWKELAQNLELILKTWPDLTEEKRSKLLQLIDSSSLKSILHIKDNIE

[4] = molecular target: T2, COMA (K. lactis, full length: Ame1, …); assay: SEC; reconstituted K. lactis COMA-Nkp1-Nkp2; peak fractions on Coomassie-stained SDS-PAGE
[5] = molecular target: T4, Ctf19_D-RWD-Mcm21_D-RWD-Okp1_229-383 (K. lactis) (Kluyveromyces lactis, UniProt Q6CRN7 107-270; Q6CVQ9 108-293; Q6CJY0 229-383); assay: SEC; analytical SEC of purified K. lactis samples alone and combined, Superdex 200 10/300, 4°C; fractions on SDS-PAGE; settings: both partners purified
T4 construct: Ctf19 of Kluyveromyces lactis, residues 107-270; Mcm21 of Kluyveromyces lactis, residues 108-293; also called Ctf19-Mcm21-Okp1 variant that includes Okp1 segment 3; CMO; source: E. coli BL21 Rosetta 2(DE3)pLysS, co-expressed, purified; copies: + +
T4 sequence (looked up) 1: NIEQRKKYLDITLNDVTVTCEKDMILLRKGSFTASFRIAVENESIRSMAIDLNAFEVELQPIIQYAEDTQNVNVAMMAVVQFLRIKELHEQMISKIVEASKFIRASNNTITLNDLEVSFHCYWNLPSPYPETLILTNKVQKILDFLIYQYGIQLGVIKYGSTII
T4 sequence (looked up) 2: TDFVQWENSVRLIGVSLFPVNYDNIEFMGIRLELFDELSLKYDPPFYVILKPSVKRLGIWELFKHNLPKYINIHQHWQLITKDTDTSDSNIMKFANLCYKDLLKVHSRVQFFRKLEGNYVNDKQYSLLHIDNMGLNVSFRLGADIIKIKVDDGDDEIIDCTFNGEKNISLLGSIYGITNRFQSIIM
T4 sequence (looked up) 3: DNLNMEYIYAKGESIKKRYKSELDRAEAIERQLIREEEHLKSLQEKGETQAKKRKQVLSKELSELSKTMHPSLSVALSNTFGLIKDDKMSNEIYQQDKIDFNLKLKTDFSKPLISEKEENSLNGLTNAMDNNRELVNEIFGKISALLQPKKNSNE

[6] = molecular target: T5, full-length Ctf19-Mcm21 (K. lactis) (Kluyveromyces lactis, UniProt Q6CRN7 1-270; Q6CVQ9 1-293); assay: MST; Ctf19-Mcm21 labelled with NT-647-NHS on lysines, ~27 nM; dilution series of peptide; 22-25°C; ITC/MST buffer; three dilution series; settings: both partners purified
T5 construct: Ctf19 of Kluyveromyces lactis; Mcm21 of Kluyveromyces lactis; for microscale thermophoresis it was labelled on lysine side chains with the red dye NT-647-NHS; also stands for the Ctf19-Mcm21 subassembly of COMA in nanoflow mass spectra; source: E. coli BL21 Rosetta 2(DE3)pLysS, co-expressed, purified
T5 sequence (looked up) 1: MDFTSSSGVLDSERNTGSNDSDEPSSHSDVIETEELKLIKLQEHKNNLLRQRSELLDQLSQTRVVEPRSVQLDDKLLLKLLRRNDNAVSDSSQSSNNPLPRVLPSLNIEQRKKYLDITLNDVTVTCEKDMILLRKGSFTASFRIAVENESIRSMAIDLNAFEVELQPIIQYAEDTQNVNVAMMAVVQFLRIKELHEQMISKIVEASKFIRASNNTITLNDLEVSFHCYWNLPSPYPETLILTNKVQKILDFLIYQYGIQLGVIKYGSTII
T5 sequence (looked up) 2: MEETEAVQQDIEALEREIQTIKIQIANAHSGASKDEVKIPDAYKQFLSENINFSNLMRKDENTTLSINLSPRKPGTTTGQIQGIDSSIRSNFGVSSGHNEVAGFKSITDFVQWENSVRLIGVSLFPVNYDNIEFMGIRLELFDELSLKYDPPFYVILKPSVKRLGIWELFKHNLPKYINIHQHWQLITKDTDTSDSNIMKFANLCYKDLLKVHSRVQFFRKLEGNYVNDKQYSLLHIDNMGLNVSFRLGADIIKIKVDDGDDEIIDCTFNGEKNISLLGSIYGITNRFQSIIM

[7] = molecular target: T5, full-length Ctf19-Mcm21 (K. lactis); assay: ITC; peptide at 120 uM injected into 13 uM Ctf19-Mcm21 in the cell, 25°C, ITC/MST buffer; single set of sites fit; three independent measurements; settings: both partners purified
[8] = molecular target: T6, full-length Ctf19-Mcm21 (K. lactis) (Kluyveromyces lactis, UniProt Q6CRN7 1-270; Q6CVQ9 1-293); assay: ITC
T6 chain 1: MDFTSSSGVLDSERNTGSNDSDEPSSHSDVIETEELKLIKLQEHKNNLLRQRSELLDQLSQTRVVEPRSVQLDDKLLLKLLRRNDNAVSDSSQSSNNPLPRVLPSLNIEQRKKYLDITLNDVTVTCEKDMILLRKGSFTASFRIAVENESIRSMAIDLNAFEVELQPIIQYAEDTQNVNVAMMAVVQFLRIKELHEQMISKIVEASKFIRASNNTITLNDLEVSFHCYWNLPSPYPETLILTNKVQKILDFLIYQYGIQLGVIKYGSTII
T6 chain 2: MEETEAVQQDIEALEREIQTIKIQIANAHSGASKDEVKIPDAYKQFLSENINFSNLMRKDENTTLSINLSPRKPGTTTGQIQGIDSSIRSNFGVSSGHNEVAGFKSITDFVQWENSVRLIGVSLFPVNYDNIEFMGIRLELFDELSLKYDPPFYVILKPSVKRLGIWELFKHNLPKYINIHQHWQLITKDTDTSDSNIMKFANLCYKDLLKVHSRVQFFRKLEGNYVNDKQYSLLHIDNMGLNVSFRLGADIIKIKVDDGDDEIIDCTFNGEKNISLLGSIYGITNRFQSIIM

B1: Okp1_295-383 (K. lactis) (domain or fragment, Kluyveromyces lactis, UniProt Q6CJY0 295-383, looked up)
chain: KTMHPSLSVALSNTFGLIKDDKMSNEIYQQDKIDFNLKLKTDFSKPLISEKEENSLNGLTNAMDNNRELVNEIFGKISALLQPKKNSNE
notes: source: E. coli BL21 Rosetta 2(DE3)pLysS, co-expressed with Ctf19 and Mcm21 versions, purified
**Q.** Does B1 bind [1]?
**A.** binds

B2: Nkp2 (K. lactis) (natural protein, Kluyveromyces lactis, UniProt Q6CSR8 1-151, looked up)
chain: MLHEVLYKHLDGILVSRLYTEDQFVDLFSRTIPESNTVIASQLYKSYEENDQRIIEKIDKLIDNKLSLIRVELEREQIEDSISLEEVNKLLHSIDDMLQQHLNQLNIELDNKNTKLLKYAMELSDIEAIDTSMYDNVAKLITDMETNQPSS
notes: Nkp2 of Kluyveromyces lactis; also called non-essential kinetochore protein 2; source: E. coli BL21 Rosetta 2(DE3)pLysS, purified
**Q.** Does B2 bind [2]?
**A.** binds

**Q.** Does B2 bind [3]?
**A.** binds

**Q.** Does B2 bind (Nkp1 (K. lactis))?
**A.** binds

**Q.** Does B3 bind [4]?
**A.** binds

**Q.** Does B3 bind [5]?
**A.** binds

B4: Okp1-derived synthetic peptide with the Ctf19-Mcm21 binding motif (Okp1 residues 318-337) (peptide, UniProt Q6CJY0 318-337, looked up)
peptide: SNEIYQQDKIDFNLKLKTDF
notes: also called Okp1-derived peptide; source: synthetic peptide (Protein Chemistry core facility, IMP, Vienna)
**Q.** How did the Kd [6] turn out when B4 was run?
**A.** ~80 nM

**Q.** And the Kd [7]?
**A.** ~40 nM

**Q.** And the Kd [8]?
**A.** 43 nM
